Measurements from publication PMC3240630.
pKd: −log10 of the molar value. Read-outs that look alike come from different tables or passages of the source. One block for each substance: values may come before it.

How the values were obtained:
[1] = molecular target: monoubiquitin (UniProt P0CG48); conditions: cited from earlier work
[2] = molecular target: monoubiquitin (UniProt P0CG48); conditions: cited from earlier work; remark: listed apart in the source
[3] = molecular target: monoubiquitin (UniProt P0CG48); conditions: cited from earlier work; remark: listed apart in the source
[4] = molecular target: monoubiquitin (UniProt P0CG48); conditions: cited from earlier work; remark: listed apart in the source
[5] = molecular target: monoubiquitin (UniProt P0CG48); conditions: cited from earlier work; remark: listed apart in the source
[6] = molecular target: XIAP-UBA-RING double-domain construct (human); experiment: SEC; analytical size-exclusion chromatography of 15N-XIAP-UBA-RING at 0.18 mM (methods in Methods S1)
[7] = molecular target: monoubiquitin (UniProt P0CG48); conditions: cited from earlier work; remark: listed apart in the source
[8] = molecular target: monoubiquitin (UniProt P0CG48); conditions: cited from earlier work; remark: listed apart in the source

Sequence of cIAP-1 (Q13490 whole entry): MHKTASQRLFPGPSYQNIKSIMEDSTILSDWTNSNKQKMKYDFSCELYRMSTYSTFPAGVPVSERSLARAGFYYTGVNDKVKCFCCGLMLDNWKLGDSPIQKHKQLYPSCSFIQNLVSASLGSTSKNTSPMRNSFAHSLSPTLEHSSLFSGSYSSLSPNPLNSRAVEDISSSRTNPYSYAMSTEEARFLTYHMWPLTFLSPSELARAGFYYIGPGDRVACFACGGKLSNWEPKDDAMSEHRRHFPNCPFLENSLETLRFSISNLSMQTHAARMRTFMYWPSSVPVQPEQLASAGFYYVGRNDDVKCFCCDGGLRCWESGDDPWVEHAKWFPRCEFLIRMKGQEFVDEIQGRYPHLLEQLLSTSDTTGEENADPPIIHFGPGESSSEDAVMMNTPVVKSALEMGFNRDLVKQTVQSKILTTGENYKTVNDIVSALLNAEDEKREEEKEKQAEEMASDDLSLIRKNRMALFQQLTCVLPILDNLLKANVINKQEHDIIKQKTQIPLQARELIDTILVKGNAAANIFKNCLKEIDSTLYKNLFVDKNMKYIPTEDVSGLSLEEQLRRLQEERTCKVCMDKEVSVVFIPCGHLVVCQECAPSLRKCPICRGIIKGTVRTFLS
Sequence of hHR23A UBA2 (P54725 315-361): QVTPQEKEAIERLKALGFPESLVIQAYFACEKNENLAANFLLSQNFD
Sequence of Ede1 UBA (P34216 1335-1381): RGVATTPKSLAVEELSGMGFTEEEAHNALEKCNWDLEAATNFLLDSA
Sequence of Dsk2 UBA (P48510 324-373): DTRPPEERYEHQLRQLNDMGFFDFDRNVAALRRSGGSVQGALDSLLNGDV
Sequence of Swa2 UBA (Q06677 137-183): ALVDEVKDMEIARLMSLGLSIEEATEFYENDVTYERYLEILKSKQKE
Sequence of Mud1 UBA (Q10256 291-332): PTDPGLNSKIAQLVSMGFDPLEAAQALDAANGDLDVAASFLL
Sequence of Cbl-b UBA (Q13191 928-973): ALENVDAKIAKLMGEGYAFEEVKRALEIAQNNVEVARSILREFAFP

Substance: Cbl-b UBA (from UniProt Q13191)
pKd [1]: 4.27

Substance: Dsk2 UBA (from UniProt P48510)
pKd [2]: 4.83

Substance: Ede1 UBA (from UniProt P34216)
pKd [3]: 4.08

Substance: Mud1 UBA (from UniProt Q10256)
pKd [4]: 3.46

Substance: Swa2 UBA (from UniProt Q06677)
pKd [5]: 3.27

stoichiometry N [6]: 2
Substance: XIAP-UBA-RING double-domain construct (domain or fragment)

Substance: cIAP-1 (from UniProt Q13490)
pKd [7]: 4.25

Substance: hHR23A UBA2 (from UniProt P54725)
pKd [8]: 3.40
